Data: article PMC12902261

Molecular target: NbMTA (Nicotiana benthamiana) (UniProt A0A1J6JV69)
Test: BLI
Conditions: Octet RED 96, Super Streptavidin sensors, 100 nM biotinylated ssRNA loaded, NbMTA (50 nM stated; serial dilutions), equilibration in 0.01 M saline, PBS …

Row | Sequence | Kd [µM]
1 | GGGAAAAAUAAAUCCAAAAGAAUUCAAGCCUUGAAGUUUCGCCAUGCUCGUGACAAAAGGGCUGGUUUUGAAAUUGACAACAAUGAUGACACAAUAGAGGAAUUCUUUGGAUCUGCAUACAGGAAAAAGGGAAAAGGUAAAGGUACCACUGUUGGUAUGGGCAAGUCAAGCAGAAGGUUUGUUAA [PVY NIa peak 2-1 probe] | > 30
2 | UCUGGGACACAUACUGUGCCGAGAAUCAAGGCUAUCACGUCCAAAAUGAGAAUGCCCAAAAGCAAGGGAGCAACCGUGCUAAACUUAGAACACUUGCUUGAGUAUGCUCCACAACAAAUUGAUAUUUCAAAUACUCGGGCAACUCAAUCACA [PVY CP peak 3 probe] | 3.1
3 | UGCAGUUCGUUCAUCACCAAGCUACGACGUCACUUGCAAAGGAUCUCAAGUUGAAGGGGACUUGGAAGAAGUCAUUAGUGGCCAAAGACUUGAUCAUAGCAGGCGCUGUUGCAAUUGGUGGAAUAGGACUCAUAUAUAGUUGGUUCACACAAUCAGUUGAGACUGUGUCUCACCAA [PVY 6K2 peak 2-1 probe] | > 30
